Assays:
APOBEC3G (A3G) [1] = target: T1, APOBEC3G (A3G) (human, UniProt Q9HC16 1-384); assay: fluorescence anisotropy; 10 mM MgCl2; 40 mM Tris pH 7.2, 50 mM NaCl, 10 mM MgCl2, 1 mM DTT, 0.1% Triton X-100, 2% glycerol, 37 C 20 min; FA with 2 nM labeled NA; UV cross-linking in 1X PBS, 37 C 20
APOBEC3G (A3G) [2] = target: T1, APOBEC3G (A3G); assay: competition (fluorescence anisotropy); vs labeled 25 nt Sub RNA (N2); 40 mM Tris pH 7.2, 50 mM NaCl, 10 mM MgCl2, 1 mM DTT, 0.1% Triton X-100, 2% glycerol, 37 C 20 min; FA with 2 nM labeled NA; UV cross-linking in 1X PBS, 37 C 20
APOBEC3G (A3G) [3] = target: T1, APOBEC3G (A3G); assay: competition (fluorescence anisotropy); vs labeled 25 nt Sub ssDNA (N1); 40 mM Tris pH 7.2, 50 mM NaCl, 10 mM MgCl2, 1 mM DTT, 0.1% Triton X-100, 2% glycerol, 37 C 20 min; FA with 2 nM labeled NA; UV cross-linking in 1X PBS, 37 C 20
APOBEC3G (A3G) [4] = target: T1, APOBEC3G (A3G); assay: EMSA; 37 C, 2.0 uM RNA; 40 mM Tris pH 7.2, 50 mM NaCl, 10 mM MgCl2, 1 mM DTT, 0.1% Triton X-100, 2% glycerol, 37 C 20 min; FA with 2 nM labeled NA; UV cross-linking in 1X PBS, 37 C 20

T1 sequence (Q9HC16 whole entry): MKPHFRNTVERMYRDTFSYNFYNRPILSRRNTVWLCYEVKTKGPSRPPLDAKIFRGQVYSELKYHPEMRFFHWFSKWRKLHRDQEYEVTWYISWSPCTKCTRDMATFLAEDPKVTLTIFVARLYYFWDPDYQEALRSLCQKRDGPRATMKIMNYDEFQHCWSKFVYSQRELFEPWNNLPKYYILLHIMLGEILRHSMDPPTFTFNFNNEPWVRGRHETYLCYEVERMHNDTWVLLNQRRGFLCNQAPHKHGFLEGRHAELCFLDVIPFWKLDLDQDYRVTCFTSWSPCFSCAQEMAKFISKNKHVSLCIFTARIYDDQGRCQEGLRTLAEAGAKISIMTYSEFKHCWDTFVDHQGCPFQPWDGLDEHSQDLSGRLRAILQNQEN

With TTATTUUUAAGGATTTATTTATTTA (ssDNA, dU at positions 6-8) [25 nt Sub ssDNA, Alexa 647] the Kd (APOBEC3G (A3G) [1]) was 3.8 nM.

UUAUUUUUAAGGAUUUAUUUAUUUA (ssRNA) [25 nt Sub RNA, Alexa 647] showed a Kd (APOBEC3G (A3G) [1]) of 2.9 nM.

TTATTUUUAAGGATTTATTTATTTA (ssDNA, dU at positions 6-8) [25 nt Sub ssDNA (unlabeled or 32P)] gave an IC50 (APOBEC3G (A3G) [2]) of 22 nM and an IC50 (APOBEC3G (A3G) [3]) of 15 nM.

UUAUUUUUAAGGAUU (ssRNA) [15 nt Sub RNA, Alexa 647] showed a Kd (APOBEC3G (A3G) [1]) of 4.4 nM.

TTATTUUUAAGGATT (ssDNA, dU at positions 6-8) [15 nt Sub ssDNA, Alexa 647] gave a Kd (APOBEC3G (A3G) [1]) of 10 nM.

UUAUUUUUAAGGAUUUAUUUAUUUA (ssRNA) [25 nt Sub RNA, unlabeled] gave an IC50 (APOBEC3G (A3G) [2]) of 115 nM and an IC50 (APOBEC3G (A3G) [3]) of 57 nM.

CAUAUAUGAUACAAUUUGAUCAGUA (ssRNA) [25 nt ApoB RNA]: binds (APOBEC3G (A3G) [4]).
